Experiments:
[1] = molecular target: T1, FGFR4 expressed on the surface of RMS cells (Rh4-FR4 wt, Rh30) (human, UniProt P22455 22-802); assay: flow cytometry of DiR fluorescence, liposomes at 0.5 mM lipid on Rh4-FR4 wt cells, 2 h at 37 °C
T1 construct: Endogenous FGFR4 of the rhabdomyosarcoma cell lines; The whole entry includes the signal peptide; also called cell-surface FGFR4; Rh4-FR4 wt cells
Procedure: Binding validation of selected phages, recombinant nanobodies and decorated liposomes was performed on Rh4-FR4 wt and Rh4-FR4ko cells. Specificity of selected phage clones binding to FGFR4 was determined by flow cytometry in 96-well plates (Becton Dickinson). Cell surface staining of Rh4-FR4 wt or Rh4-FR4ko cells was performed on ice in PBS supplemented with 1% FBS. 80 μL phages+20 μL PBS/1% milk were incubated on 1×10⁵ cells for 1 h on ice. […] Samples were analyzed after two washes by flow cytometry on a MACSQuant® cytometer (Miltenyi) and results were analyzed with FlowJo™ software (BD Biosciences, France). Phages displaying anti-mCherry nanobodies were used as negative control²⁴ and as positive control we used an anti-FGFR4 antibody (BT53, kindly provided by J. Khan lab, NCI, Bethesda, MD). For binding test of recombinant nanobodies, cells were detached with Accutase® (Stemcell Technologies) and washed with PBS. All following steps were performed on ice: 4×10⁵ cells were incubated with nanobody concentrations of 30 μg/ml for 1 h, washed once with PBS and incubated for an additional 30 min with anti His-tag FITC labeled antibody (LS-C57341, LSBioscience, diluted 1:10). The cells were washed once more with PBS and analyzed. Targeting liposomes were added at 0.5 mM final lipid concentration to cells in 96-well plates and incubated for 2 h at 37° C. and 5% CO₂. The cells were washed twice with PBS and detached with Accutase®.
(§1) We next wanted to test if nanobodies on the liposomal surface can still bind to FGFR4 expressing RMS cells. Rh4-FR4 wt and Rh4-FR4ko cells were incubated for 2 h with FGFR4-targeted liposomes or mCherry-targeted control liposomes under normal cell culture conditions. DiR fluorescence was subsequently analyzed by flow cytometry (FIG. 5).

[2] = molecular target: T1, FGFR4 expressed on the surface of RMS …; assay: flow cytometry of DiR fluorescence, liposomes at 0.5 mM lipid on Rh4-FR4 wt cells; reference L-mCh
Procedure: Samples were analyzed after two washes by flow cytometry on a MACSQuant® cytometer (Miltenyi) and results were analyzed with FlowJo™ software (BD Biosciences, France). Phages displaying anti-mCherry nanobodies were used as negative control²⁴ and as positive control we used an anti-FGFR4 antibody (BT53, kindly provided by J. Khan lab, NCI, Bethesda, MD). For binding test of recombinant nanobodies, cells were detached with Accutase® (Stemcell Technologies) and washed with PBS. All following steps were performed on ice: 4×10⁵ cells were incubated with nanobody concentrations of 30 μg/ml for 1 h, washed once with PBS and incubated for an additional 30 min with anti His-tag FITC labeled antibody (LS-C57341, LSBioscience, diluted 1:10). The cells were washed once more with PBS and analyzed. Targeting liposomes were added at 0.5 mM final lipid concentration to cells in 96-well plates and incubated for 2 h at 37° C. and 5% CO₂. The cells were washed twice with PBS and detached with Accutase®.
as §1

T1 sequence (P22455 22-802 limits assumed): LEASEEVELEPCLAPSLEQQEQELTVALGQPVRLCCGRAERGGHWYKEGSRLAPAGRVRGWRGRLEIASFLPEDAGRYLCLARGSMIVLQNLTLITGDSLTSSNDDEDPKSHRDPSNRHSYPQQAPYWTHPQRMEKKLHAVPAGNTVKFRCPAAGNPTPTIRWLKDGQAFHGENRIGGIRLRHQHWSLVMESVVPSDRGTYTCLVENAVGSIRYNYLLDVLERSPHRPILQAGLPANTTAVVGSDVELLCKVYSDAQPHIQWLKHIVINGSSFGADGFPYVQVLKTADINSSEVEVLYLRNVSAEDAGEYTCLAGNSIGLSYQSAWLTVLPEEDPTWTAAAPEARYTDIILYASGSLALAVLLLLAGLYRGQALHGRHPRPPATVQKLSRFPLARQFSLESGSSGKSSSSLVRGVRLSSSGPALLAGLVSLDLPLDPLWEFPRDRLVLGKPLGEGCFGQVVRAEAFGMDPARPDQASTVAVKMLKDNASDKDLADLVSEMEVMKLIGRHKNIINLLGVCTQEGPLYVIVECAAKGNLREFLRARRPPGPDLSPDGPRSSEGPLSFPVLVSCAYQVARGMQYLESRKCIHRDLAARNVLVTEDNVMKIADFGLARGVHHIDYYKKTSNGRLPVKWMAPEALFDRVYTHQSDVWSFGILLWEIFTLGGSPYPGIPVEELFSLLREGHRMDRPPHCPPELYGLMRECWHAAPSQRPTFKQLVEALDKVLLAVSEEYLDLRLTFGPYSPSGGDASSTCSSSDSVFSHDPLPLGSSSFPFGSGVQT

Binder	MFI [1]	fold increase of MFI over L-mCh [2]
L-B5, VCR-loaded fluorescent liposomes decorated with nanobody B5 (other, C-terminal cysteine coupled to DSPE-PEG-maleimide on the liposomal surface, Liposome as for L-A8; also called FGFR4-targeted liposomes; not shown: C-terminal Myc/6xHis-tag and an additional cysteine) VHH: EVQLQASGGGFVQPGGSLRLSCAASGRTSWLTTMGWFRQAPGKEREFVSAISSFSSKQGYYADSVKGRFTISRDNSKNTVYLQMNSLRAEDTATYYCAYASYPRHQGNGRWKDFVEYWGQGTQVTVSS	1700 MFI	34 fold
L-F8, VCR-loaded fluorescent liposomes decorated with nanobody F8 (other, C-terminal cysteine coupled to DSPE-PEG-maleimide on the liposomal surface, Liposome as for L-A8; also called FGFR4-targeted liposomes; not shown: C-terminal Myc/6xHis-tag and an additional cysteine) VHH: EVQLVESGGGLVQPGGSLRLSCAASGTGYALDDMGWVRQAPGKGLEWVSAISDDESMADYYADSVKGRFTISRDNSKNTVYLQMNSLRAEDTAVYYCASYKEYKYQSGHHYFAYRGQGTLVTVSS	1400 MFI	28 fold
L-A8, VCR-loaded fluorescent liposomes decorated with nanobody A8 (other, C-terminal cysteine coupled to DSPE-PEG-maleimide on the liposomal surface, Liposome of egg sphingomyelin, cholesterol, PEG-ceramide, DSPE-PEG-maleimide and DiR, loaded with vincristine; also called FGFR4-targeted liposomes; not shown: C-terminal Myc/6xHis-tag and an additional cysteine) VHH: EVQLQASGGGFVQPGGSLRLSCAASGRTYSRDTMGWFRQAPGKEREFVSAISSRHSHTTYYADSVKGRFTISRDNSKNTVYLQMNSLRAEDTATYYCAEWDVFDMHYALPPMWYWGQGTQVTVSS	300 MFI	6 fold
L-B1, VCR-loaded fluorescent liposomes decorated with nanobody B1 (other, C-terminal cysteine coupled to DSPE-PEG-maleimide on the liposomal surface, Liposome as for L-A8; also called FGFR4-targeted liposomes; not shown: C-terminal Myc/6xHis-tag and an additional cysteine) VHH: EVQLQASGGGFVQPGGSLRLSCAASGYTSRSSAMGWFRQAPGKEREFVSAISDLTGYPYYYADSVKGRFTISRDNSKNTVYLQMNSLRAEDTATYYCAAYQDDKWTYGSQHGKYWGQGTQVTVSS	600 MFI	12 fold
